± gives the uncertainty stated by the source.
Test: protein stability index of a GFP-peptide fusion (yeast GPS) (PSI 1-4); higher = more stable; sorted into four equal gates, so the index is relative within each strain
Summary of the method: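 Tiled 17-residue peptides from yeast proteins were fused downstream of GFP on a plasmid that also expresses Cherry, and the pooled library was carried in yeast. Mid-log cultures grown in leucine-free medium were sorted into four equal gates by GFP/Cherry fluorescence ratio. Plasmids from each gate were PCR-amplified and Illumina-sequenced, and reads were assigned to strains by barcodes. Each peptide's protein stability index is the sum, over gates, of the gate's read frequency multiplied by its gate number.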

| Sequence | protein stability index (doa10∆) | protein stability index (pdr5∆) | protein stability index (san1∆) | protein stability index (ubr1∆) |
| --- | --- | --- | --- | --- |
| KVSSAEYYAKKRAFTKK [RPL16A] | 3 ± 0.098 | 3.32 ± 0.099 | 2.98 ± 0.092 | 3.36 ± 0.082 |
| YDALLSINVHSNNITSG [RET1] | 2.52 ± 0.061 | 2.66 ± 0.057 | 2.59 ± 0.059 | 2.76 ± 0.04 |
| IPSSKIDDFTTRLWGSV [SNU114] | 2.93 ± 0.16 | 3.05 ± 0.14 | 3 ± 0.12 | 3.21 ± 0.12 |
| LTFILGQLLSVKFLVYQ [YML031W/NDC1] | 1.53 ± 0.081 | 2.14 ± 0.12 | 1.51 ± 0.19 | 1.69 ± 0.097 |
| SSQFVRLASEPGIISIT [YMR129W/POM152] | 2.04 ± 0.094 | 2.14 ± 0.062 | 1.99 ± 0.12 | 1.78 ± 0.04 |
| DRHIGCVYSGLIPDGRH [PRE10] | 3.18 ± 0.098 | 3.41 ± 0.088 | 3.1 ± 0.062 | 3.54 ± 0.12 |
| TIRQIILPDSLNLDSLL [SMD1] | 3.03 ± 0.076 | 2.67 ± 0.065 | 3.11 ± 0.055 | 2.7 ± 0.046 |
| NVEMEEDVLVNQILMSV [RPL1A] | 2.83 ± 0.13 | 3.14 ± 0.1 | 1.61 ± 0.15 | 2.92 ± 0.083 |
| LKALSHHYNPKTKKLNL [BRR2] | 2.46 ± 0.088 | 2.4 ± 0.086 | 2.33 ± 0.11 | 2.69 ± 0.053 |
| TGALINNLEPRQTTSNT [RPN11] | 3.12 ± 0.1 | 3.25 ± 0.15 | 2.62 ± 0.15 | 3.02 ± 0.076 |
| KENKKRKNFKMGPLYQN [IRR1] | 1.33 ± 0.046 | 1.99 ± 0.08 | 2.05 ± 0.078 | 2.13 ± 0.059 |
| IEKGSTFGINLIYVNPF [FAS1] | 2.58 ± 0.06 | 2.61 ± 0.068 | 2.71 ± 0.052 | 2.78 ± 0.04 |
| ISIPKTCDEIQNFENDF [REC8] | 2.8 ± 0.077 | 2.92 ± 0.068 | 2.61 ± 0.056 | 2.85 ± 0.046 |
| ITHTENYNDLIVNYEDL [BRN1] | 3.17 ± 0.09 | 2.94 ± 0.12 | 2.56 ± 0.14 | 3.2 ± 0.072 |
| GLSIHPTQITQYTQRLS [SRP68] | 2.09 ± 0.063 | 1.93 ± 0.066 | 1.92 ± 0.071 | 2.13 ± 0.071 |
| ETSGVTTALLKDEEIEK [MED8] | 3.2 ± 0.097 | 3.05 ± 0.18 | 2.84 ± 0.17 | 3.63 ± 0.11 |
| LEEQQQLEDESSRLEFV [YML103C/NUP188] | 3.43 ± 0.084 | 3.3 ± 0.086 | 3.39 ± 0.06 | 3.46 ± 0.08 |
| TCVTCHWNLPGERIFNK [SIR2] | 2.87 ± 0.14 | 2.88 ± 0.11 | 2.82 ± 0.091 | 3.19 ± 0.083 |
| KAFTNWNKRDFMAFINA [ISW2] | 1.26 ± 0.078 | 1.25 ± 0.091 | 1.25 ± 0.16 | 1.16 ± 0.062 |
| LEIASSIDCLLILILVI [SWI1] | 1.98 ± 0.07 | 2.24 ± 0.046 | 2.34 ± 0.074 | 1.71 ± 0.035 |
| NPRKRAIPNSIIKRSNG [YMR153W/NUP53] | 2.19 ± 0.091 | 2.7 ± 0.1 | 2.67 ± 0.1 | 2.92 ± 0.12 |
| FKVQELLHSKPSLLLQK [NAS6] | 2.23 ± 0.13 | 2.3 ± 0.074 | 2.64 ± 0.14 | 2.31 ± 0.084 |
| FKGALTIKILPENTAMF [YMR129W/POM152] | 2.32 ± 0.083 | 2.14 ± 0.052 | 2.33 ± 0.056 | 2.25 ± 0.05 |
| ISSLMFDEEFDPFKTSS [IRR1] | – | – | 2.7 ± 0.14 | 2.99 ± 0.26 |
| SSQPLEPLSDTEEPDLA [DSN1] | 2.74 ± 0.062 | 2.69 ± 0.06 | 3.25 ± 0.037 | 2.36 ± 0.07 |
| PPPGLDELETKAEKKVE [PRP8] | 3.02 ± 0.06 | 3.21 ± 0.048 | 3.13 ± 0.05 | 3.08 ± 0.049 |
| RALRIETGNFSWASEGI [RPS8A] | 3.15 ± 0.036 | 3.15 ± 0.037 | 3.11 ± 0.027 | 3.052 ± 0.026 |
